# The supplement of paper PMC10567573
# B1: ARL6IP1 (parent)
# chain: YLDPSVLSGVSCFVMFLCLADYLV
# B2: DLC1 (parent)
# chain: KRSWEEHVTHWMGQPFNSDDRNTA
# Variants of: B1
# Assay: protein stability index of a GFP-peptide fusion (GPS, HEK-293T) (PSI 1-6); higher = more stable
# Details: c terminus: a fixed tail appended
# 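Further: lentivirally expressed fusions sorted by FACS into six bins by GFP to DsRed ratio, PSI derived from sequencing read proportions per bin multiplied by bin number.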
row,Variant,protein stability index
1,YLNPSVLSGVSCFVMFLCLADYLV [D3N],3.7
2,YLEPSVLSGVSCFVMFLCLADYLV [D3E],1.94
3,YLQPSVLSGVSCFVMFLCLADYLV [D3Q],3.57
4,YLHPSVLSGVSCFVMFLCLADYLV [D3H],1.69
5,YLRPSVLSGVSCFVMFLCLADYLV [D3R],3.64
6,YLVPSVLSGVSCFVMFLCLADYLV [D3V],2.91
7,YLYPSVLSGVSCFVMFLCLADYLV [D3Y],2.54
8,YLPPSVLSGVSCFVMFLCLADYLV [D3P],3.06
9,YLAPSVLSGVSCFVMFLCLADYLV [D3A],5.08
10,YLIPSVLSGVSCFVMFLCLADYLV [D3I],2.83
11,YLTPSVLSGVSCFVMFLCLADYLV [D3T],2.59
12,YLSPSVLSGVSCFVMFLCLADYLV [D3S],2.72
13,YLDPSNLSGVSCFVMFLCLADYLV [V6N],3.08
14,YLDPSALSGVSCFVMFLCLADYLV [V6A],1.44
15,YLDPSRLSGVSCFVMFLCLADYLV [V6R],2.76
16,YLDPSTLSGVSCFVMFLCLADYLV [V6T],2.39
17,YLDPSYLSGVSCFVMFLCLADYLV [V6Y],2.66
18,YLDPSCLSGVSCFVMFLCLADYLV [V6C],3.38
19,YLDPSSLSGVSCFVMFLCLADYLV [V6S],2.79
20,YLDPSILSGVSCFVMFLCLADYLV [V6I],3.23
21,YLDPSDLSGVSCFVMFLCLADYLV [V6D],2.36
22,YLDPSKLSGVSCFVMFLCLADYLV [V6K],2.51
23,YLDPSQLSGVSCFVMFLCLADYLV [V6Q],2.64

row,Variant,protein stability index
1,YLDPSVLMGVSCFVMFLCLADYLV [S8M],2.26
2,YLDPSVLVGVSCFVMFLCLADYLV [S8V],3.82
3,YLDPSVLHGVSCFVMFLCLADYLV [S8H],3.58
4,YLDPSVLTGVSCFVMFLCLADYLV [S8T],2.79
5,YLDPSVLIGVSCFVMFLCLADYLV [S8I],2.96
6,YLDPSVLNGVSCFVMFLCLADYLV [S8N],3.35
7,YLDPSVLFGVSCFVMFLCLADYLV [S8F],3.22
8,YLDPSVLCGVSCFVMFLCLADYLV [S8C],3.59
9,YLDPSVLLGVSCFVMFLCLADYLV [S8L],3.77
10,YLDPSVLRGVSCFVMFLCLADYLV [S8R],2.95
11,YLDPSVLGGVSCFVMFLCLADYLV [S8G],3.79
12,VLDPSVLSGVSCFVMFLCLADYLV [Y1V],2.9
13,CLDPSVLSGVSCFVMFLCLADYLV [Y1C],3.1
14,HLDPSVLSGVSCFVMFLCLADYLV [Y1H],3.89
15,NLDPSVLSGVSCFVMFLCLADYLV [Y1N],4.11
16,ALDPSVLSGVSCFVMFLCLADYLV [Y1A],1.59
17,ILDPSVLSGVSCFVMFLCLADYLV [Y1I],2.63
18,RLDPSVLSGVSCFVMFLCLADYLV [Y1R],2.81
19,DLDPSVLSGVSCFVMFLCLADYLV [Y1D],2.61
20,MLDPSVLSGVSCFVMFLCLADYLV [Y1M],3.37
21,YLDPSVLSAVSCFVMFLCLADYLV [G9A],3.74
22,YLDPSVLSEVSCFVMFLCLADYLV [G9E],2.77
23,YLDPPVLSGVSCFVMFLCLADYLV [S5P],3.19

row,Variant,protein stability index
1,YLDPMVLSGVSCFVMFLCLADYLV [S5M],3.03
2,YLDPLVLSGVSCFVMFLCLADYLV [S5L],3.09
3,YLDPRVLSGVSCFVMFLCLADYLV [S5R],3.56
4,YLDPIVLSGVSCFVMFLCLADYLV [S5I],3.61
5,YLDPNVLSGVSCFVMFLCLADYLV [S5N],2.26
6,YLDPHVLSGVSCFVMFLCLADYLV [S5H],3.5
7,YLDPGVLSGVSCFVMFLCLADYLV [S5G],3.63
8,YLDPKVLSGVSCFVMFLCLADYLV [S5K],3.47
9,YLDPDVLSGVSCFVMFLCLADYLV [S5D],3.07
10,YLDNSVLSGVSCFVMFLCLADYLV [P4N],2.9
11,YLDISVLSGVSCFVMFLCLADYLV [P4I],2.66
12,YLDVSVLSGVSCFVMFLCLADYLV [P4V],3.33
13,YLDLSVLSGVSCFVMFLCLADYLV [P4L],2.76
14,YLDCSVLSGVSCFVMFLCLADYLV [P4C],3.21
15,YLDMSVLSGVSCFVMFLCLADYLV [P4M],3.45
16,YLDKSVLSGVSCFVMFLCLADYLV [P4K],2.63
17,YLDGSVLSGVSCFVMFLCLADYLV [P4G],3.42
18,YLDDSVLSGVSCFVMFLCLADYLV [P4D],3.12
19,YLDPSVTSGVSCFVMFLCLADYLV [L7T],2.8
20,YLDPSVSSGVSCFVMFLCLADYLV [L7S],3.62
21,YLDPSVMSGVSCFVMFLCLADYLV [L7M],2.98
22,YLDPSVQSGVSCFVMFLCLADYLV [L7Q],4
23,YLDPSVPSGVSCFVMFLCLADYLV [L7P],2.4

row,Variant,protein stability index
1,YLDPSVNSGVSCFVMFLCLADYLV [L7N],2.74
2,YLDPSVCSGVSCFVMFLCLADYLV [L7C],1.88
3,YLDPSVHSGVSCFVMFLCLADYLV [L7H],3.82
4,YLDPSVYSGVSCFVMFLCLADYLV [L7Y],2.89
5,YLDPSVVSGVSCFVMFLCLADYLV [L7V],3.69
6,YLDPSVASGVSCFVMFLCLADYLV [L7A],3.11
7,YTDPSVLSGVSCFVMFLCLADYLV [L2T],3.75
8,YIDPSVLSGVSCFVMFLCLADYLV [L2I],1.63
9,YADPSVLSGVSCFVMFLCLADYLV [L2A],2.29
10,YPDPSVLSGVSCFVMFLCLADYLV [L2P],2.76
11,YCDPSVLSGVSCFVMFLCLADYLV [L2C],2.99
12,YNDPSVLSGVSCFVMFLCLADYLV [L2N],2.5
13,YKDPSVLSGVSCFVMFLCLADYLV [L2K],3.31
14,YYDPSVLSGVSCFVMFLCLADYLV [L2Y],2.35
15,YHDPSVLSGVSCFVMFLCLADYLV [L2H],2.67
16,YFDPSVLSGVSCFVMFLCLADYLV [L2F],3
17,YEDPSVLSGVSCFVMFLCLADYLV [L2E],3.04
18,YRDPSVLSGVSCFVMFLCLADYLV [L2R],2.5
19,YDDPSVLSGVSCFVMFLCLADYLV [L2D],3.95
20,YQDPSVLSGVSCFVMFLCLADYLV [L2Q],2.09

# Variants of: B2
# Assay: as above
# Details: c terminus: a fixed tail appended
row,Variant,protein stability index
1,KRSWEEHVTHWMGQPFNSDDTNTA [R21T],3.08
2,KRSWEEHVTHWMGQPFNSDDANTA [R21A],2.64
3,KRSWEEHVTHWMGQPFNSDDFNTA [R21F],1.95
4,KRSWEEHVTHWMGQPFNSDDLNTA [R21L],3.36
5,KRSWEEHVTHWMGQPFNSDDMNTA [R21M],2.27
